{"source": "patent EP0977036A1", "about": "“METHOD FOR ASSAYING AGALACTO-IgG AND ASSAY KITS, PO[…] LECTINS, AND DNAS ENCODING THE SAME” (SEIKAGAKU CORPORATION, priority 1996, dated 1998)", "molecular_target": "agalacto-IgG (human IgG treated with streptococcal beta-galactosidase and sialidase, Preparation Example 1)", "experiment": "sandwich ELISA of Example 3, agalacto-IgG 2.5 µg/ml, competitor GlcNAc 50 mM (a monosaccharide)", "data": [{"substance": "Psathyrella velutina lectin (PVL), purified from Psathyrella velutina fruiting body", "values": [{"measurement": "percent inhibition in the presence of 50 mM GlcNAc", "value": 50, "unit": "%"}]}]}
